# From paper PMC3893231 (mAbs, 2013)
# T1: Ang2 (UniProt O15123 19-496)
# T1 sequence: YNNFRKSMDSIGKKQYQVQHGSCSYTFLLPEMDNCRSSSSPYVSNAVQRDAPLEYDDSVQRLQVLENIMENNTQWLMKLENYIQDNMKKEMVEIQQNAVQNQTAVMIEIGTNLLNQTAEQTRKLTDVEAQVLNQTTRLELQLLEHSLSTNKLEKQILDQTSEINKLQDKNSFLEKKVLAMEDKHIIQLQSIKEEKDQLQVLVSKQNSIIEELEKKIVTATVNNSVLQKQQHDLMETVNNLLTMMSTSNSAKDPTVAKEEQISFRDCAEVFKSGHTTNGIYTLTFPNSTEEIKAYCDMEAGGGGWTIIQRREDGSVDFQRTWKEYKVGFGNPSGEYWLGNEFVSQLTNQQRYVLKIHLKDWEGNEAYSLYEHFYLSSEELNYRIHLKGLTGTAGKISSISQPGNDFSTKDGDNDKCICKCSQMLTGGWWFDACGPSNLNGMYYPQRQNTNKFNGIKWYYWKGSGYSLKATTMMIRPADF
# B1: MBP-a1 (designed binder)
# chain: LWDDCYFFPNPPHCYNSP
# Biological target: T1, Ang2
# Assay: SPR
binder,measurement,value
B1,Kd,22.2 ± 0.08 nM
